99 substances from patent US20090041770A1 can be followed below.

The target in the assay is human FcRn fused to a His-tag and glutathione S transferase (FcRn-His-GST), complex of FcRn heavy chain with beta-2-microglobulin (human) (UniProt P55899). As to the kind of experiment: AlphaScreen competition. A general note: In Alpha technology, singlet oxygen from a donor bead excites a nearby acceptor bead.

Turning to F243E (antibody), the FcRn Binding ratio Variant / WT worked out at 1.14.
Take A327K (antibody): the FcRn Binding ratio Variant / WT was determined as 1.01.
For the substance S304T (antibody), the FcRn Binding ratio Variant / WT was determined as 2.86.
Under I332N (antibody) stands 3.2.
On to P331F (antibody), for which the FcRn Binding ratio Variant / WT stood at 3.91.
Regarding S267E (antibody), the FcRn Binding ratio Variant / WT stood at 2.24.
Under R292E (antibody) stands 1.45; under D265R (antibody), 1.16.
Consider P238V (antibody), for which the FcRn Binding ratio Variant / WT is 1.43.
The result for H285D (antibody) reads 2.4; that for G237T (antibody), 1.32.
Y300V (antibody): the FcRn Binding ratio Variant / WT amounted to 1.09.
Turning to L235N (antibody), the FcRn Binding ratio Variant / WT is 1.32.
The result for L328G (antibody) reads 1.16.
The result for P228Y (antibody) reads 1.45; that for N286E (antibody), 2.12; that for E269Y (antibody), 24.8.
The result for E269K (antibody) reads 1.23.
Take E272T (antibody): the FcRn Binding ratio Variant / WT stood at 2.46.
Under V264I (antibody) stands 1.32.
Under P238M (antibody) stands 2.33.
As to F241W/F243W (antibody), the FcRn Binding ratio Variant / WT was 1.12.
Under R301E (antibody) stands 2.92; under E233G (antibody), 2.09.
As to E233W (antibody), the FcRn Binding ratio Variant / WT was found to be 1.64.
With L328I/I332E (antibody), the FcRn Binding ratio Variant / WT was found to be 2.21.
Under E272D (antibody) stands 1.37; under N276F (antibody), 1.18; under S267L/A327S (antibody), 1.05.
Turning to F241L (antibody), the FcRn Binding ratio Variant / WT turned out to be 1.99.
With T335P (antibody), the FcRn Binding ratio Variant / WT was found to be 1.45.
The result for V264F (antibody) reads 1.07.
Turning to I332D (antibody), the FcRn Binding ratio Variant / WT turned out to be 1.75.
On to F241W/F243W/V262A/V264A (antibody), for which the FcRn Binding ratio Variant / WT turned out to be 1.91.
Take D221K (antibody): the FcRn Binding ratio Variant / WT came to 5.66.
Under A330W (antibody) stands 1.02; under A330Y/I332E (antibody), 1.53; under S239M (antibody), 1.03.
Under T335L (antibody) stands 1.5; under V262E (antibody), 9.27.
Turning to V266I (antibody), the FcRn Binding ratio Variant / WT is 1.17.
For P238F (antibody), the FcRn Binding ratio Variant / WT was 2.41.
For P271V (antibody), the FcRn Binding ratio Variant / WT turned out to be 1.06.
Under E269P (antibody) stands 1.23; under P238I (antibody), 1.44.
Under E269G (antibody) stands 1.34.
In the case of L235S (antibody), the FcRn Binding ratio Variant / WT was 1.51.
Under I336K (antibody) stands 12.1.
On to K320N (antibody), for which the FcRn Binding ratio Variant / WT amounted to 2.01.
S324D (antibody): the FcRn Binding ratio Variant / WT is 1.27.
Under D270S (antibody) stands 1.03; under S239D (antibody), 1.73; under H268M (antibody), 1.88.
Regarding S239E (antibody), the FcRn Binding ratio Variant / WT worked out at 1.47.
Under S298E (antibody) stands 1.54; under P271Y (antibody), 1.48; under V282E (antibody), 1.91.
For the substance F241L/V262I (antibody), the FcRn Binding ratio Variant / WT amounted to 1.37.
Under L235Q (antibody) stands 1.67; under V284T (antibody), 1.15; under T225K (antibody), 5.68.
Under Y278V (antibody) stands 1.27; under K288Y (antibody), 1.1.
Under E318L (antibody) stands 3.61; under P329W (antibody), 3.16.
Turning to E294K (antibody), the FcRn Binding ratio Variant / WT stood at 1.16.
The result for Y296I (antibody) reads 1.71; that for E283H (antibody), 6.25.
Turning to P238N (antibody), the FcRn Binding ratio Variant / WT amounted to 1.15.
Under S239D/D265H/N297D/I332E (antibody) stands 1.26; under P238K (antibody), 5.01.
Regarding G236A (antibody), the FcRn Binding ratio Variant / WT worked out at 1.75.
For Y300N (antibody), the FcRn Binding ratio Variant / WT worked out at 1.14.
Consider R255Y (antibody), for which the FcRn Binding ratio Variant / WT stood at 12.9.
G236I (antibody): the FcRn Binding ratio Variant / WT was determined as 1.33.
Under L234I/L235D (antibody) stands 1.03; under E283P (antibody), 1.33; under T335M (antibody), 1.35.
The result for K274E (antibody) reads 1.05; that for T335N (antibody), 1.23; that for P238D (antibody), 1.03.
The result for G236Y (antibody) reads 1.52; that for G237E (antibody), 1.36; that for G281D (antibody), 1.33.
For E258Y (antibody), the FcRn Binding ratio Variant / WT was 1.07.
The result for G236H (antibody) reads 1.48.
For P238L (antibody), the FcRn Binding ratio Variant / WT was found to be 1.71.
The result for H268E (antibody) reads 1.71; that for K246Y (antibody), 2.47; that for Y278D (antibody), 1.79.
Under G281Y (antibody) stands 1.46; under A327Y (antibody), 1.23; under P230G (antibody), 1.16.
With I332E (antibody), the FcRn Binding ratio Variant / WT came to 1.32.
As to P227E (antibody), the FcRn Binding ratio Variant / WT worked out at 1.49.
Under V264D (antibody) stands 7.67.
The result for S239D/N297D/I332E (antibody) reads 3.09.
As to E269I (antibody), the FcRn Binding ratio Variant / WT is 1.26.
The result for V264T (antibody) reads 1.66.
